Results reported in the supplement of paper PMC10567573.

B1: ZNF232 (parent)
chain: FPKSEQVYLHFLSVVTEDGPEPKD
B2: PWWP2B (parent)
chain: TIRLRPRQVLCEKCKSTLSPPEAS
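Note: lentivirally expressed fusions sorted by FACS into six bins by GFP to DsRed ratio, PSI derived from sequencing read proportions per bin multiplied by bin number.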

Variants of: B1
Assay: protein stability index of a GFP-peptide fusion (GPS, HEK-293T) (PSI 1-6); higher = more stable
Conditions: c terminus: a fixed tail appended
YPKSEQVYLHFLSVVTEDGPEPKD [F1Y] gave a protein stability index of 2.01. For QPKSEQVYLHFLSVVTEDGPEPKD [F1Q], the protein stability index was 4.75. For HPKSEQVYLHFLSVVTEDGPEPKD [F1H], the protein stability index was 3.88. With DPKSEQVYLHFLSVVTEDGPEPKD [F1D] the protein stability index was 4.86. For EPKSEQVYLHFLSVVTEDGPEPKD [F1E], the protein stability index was 4.82. For RPKSEQVYLHFLSVVTEDGPEPKD [F1R], the protein stability index was 3.89. With LPKSEQVYLHFLSVVTEDGPEPKD [F1L] the protein stability index was 3.95. WPKSEQVYLHFLSVVTEDGPEPKD [F1W] gave a protein stability index of 3. Variant VPKSEQVYLHFLSVVTEDGPEPKD [F1V] has a protein stability index of 3.92. GPKSEQVYLHFLSVVTEDGPEPKD [F1G] gave a protein stability index of 3.98. Variant TPKSEQVYLHFLSVVTEDGPEPKD [F1T] has a protein stability index of 4.05. Variant KPKSEQVYLHFLSVVTEDGPEPKD [F1K] has a protein stability index of 4.44. With NPKSEQVYLHFLSVVTEDGPEPKD [F1N] the protein stability index was 4.29. In the case of MPKSEQVYLHFLSVVTEDGPEPKD [F1M], the protein stability index is reported as 4.15. With PPKSEQVYLHFLSVVTEDGPEPKD [F1P] the protein stability index was 4.28. Work on IPKSEQVYLHFLSVVTEDGPEPKD [F1I] yielded a protein stability index of 3.73. Variant CPKSEQVYLHFLSVVTEDGPEPKD [F1C] has a protein stability index of 4.31. Variant APKSEQVYLHFLSVVTEDGPEPKD [F1A] has a protein stability index of 4.31. With SPKSEQVYLHFLSVVTEDGPEPKD [F1S] the protein stability index was 3.69. FPYSEQVYLHFLSVVTEDGPEPKD [K3Y] showed a protein stability index of 2.02. For FPVSEQVYLHFLSVVTEDGPEPKD [K3V], the protein stability index was 2.33. With FPSSEQVYLHFLSVVTEDGPEPKD [K3S] the protein stability index was 2.7. FPNSEQVYLHFLSVVTEDGPEPKD [K3N] gave a protein stability index of 2.71. FPHSEQVYLHFLSVVTEDGPEPKD [K3H] showed a protein stability index of 2.09. FPPSEQVYLHFLSVVTEDGPEPKD [K3P] showed a protein stability index of 2.46. In the case of FPFSEQVYLHFLSVVTEDGPEPKD [K3F], the protein stability index is reported as 2.61. With FPISEQVYLHFLSVVTEDGPEPKD [K3I] the protein stability index was 2.23. FPMSEQVYLHFLSVVTEDGPEPKD [K3M] showed a protein stability index of 2.69. FPWSEQVYLHFLSVVTEDGPEPKD [K3W] showed a protein stability index of 1.95. With FPCSEQVYLHFLSVVTEDGPEPKD [K3C] the protein stability index was 2.51. Work on FPQSEQVYLHFLSVVTEDGPEPKD [K3Q] yielded a protein stability index of 2.12. With FPESEQVYLHFLSVVTEDGPEPKD [K3E] the protein stability index was 3.36. FPASEQVYLHFLSVVTEDGPEPKD [K3A] showed a protein stability index of 2.85. FPLSEQVYLHFLSVVTEDGPEPKD [K3L] showed a protein stability index of 3.27. FPTSEQVYLHFLSVVTEDGPEPKD [K3T] showed a protein stability index of 2.75. For FPDSEQVYLHFLSVVTEDGPEPKD [K3D], the protein stability index was 2.35. For FPGSEQVYLHFLSVVTEDGPEPKD [K3G], the protein stability index was 3.07. For FAKSEQVYLHFLSVVTEDGPEPKD [P2A], the protein stability index was 1.91. FIKSEQVYLHFLSVVTEDGPEPKD [P2I] showed a protein stability index of 2.72. In the case of FLKSEQVYLHFLSVVTEDGPEPKD [P2L], the protein stability index is reported as 2.29. With FGKSEQVYLHFLSVVTEDGPEPKD [P2G] the protein stability index was 2.78. Variant FVKSEQVYLHFLSVVTEDGPEPKD [P2V] has a protein stability index of 2.26. With FQKSEQVYLHFLSVVTEDGPEPKD [P2Q] the protein stability index was 2.14. With FKKSEQVYLHFLSVVTEDGPEPKD [P2K] the protein stability index was 2.91. FWKSEQVYLHFLSVVTEDGPEPKD [P2W] gave a protein stability index of 2.44. With FDKSEQVYLHFLSVVTEDGPEPKD [P2D] the protein stability index was 3.92. In the case of FHKSEQVYLHFLSVVTEDGPEPKD [P2H], the protein stability index is reported as 1.54. With FCKSEQVYLHFLSVVTEDGPEPKD [P2C] the protein stability index was 2.75. For FFKSEQVYLHFLSVVTEDGPEPKD [P2F], the protein stability index was 2.37. FYKSEQVYLHFLSVVTEDGPEPKD [P2Y] gave a protein stability index of 2.89. With FNKSEQVYLHFLSVVTEDGPEPKD [P2N] the protein stability index was 2.8. With FMKSEQVYLHFLSVVTEDGPEPKD [P2M] the protein stability index was 2.28. For FTKSEQVYLHFLSVVTEDGPEPKD [P2T], the protein stability index was 2.68. FEKSEQVYLHFLSVVTEDGPEPKD [P2E] gave a protein stability index of 4.04. FPKSAQVYLHFLSVVTEDGPEPKD [E5A] gave a protein stability index of 2.29. Variant FPKQEQVYLHFLSVVTEDGPEPKD [S4Q] has a protein stability index of 2.29. With FPKIEQVYLHFLSVVTEDGPEPKD [S4I] the protein stability index was 2.58. Variant FPKYEQVYLHFLSVVTEDGPEPKD [S4Y] has a protein stability index of 3.17. For FPKTEQVYLHFLSVVTEDGPEPKD [S4T], the protein stability index was 2.34. For FPKLEQVYLHFLSVVTEDGPEPKD [S4L], the protein stability index was 1.78. In the case of FPKCEQVYLHFLSVVTEDGPEPKD [S4C], the protein stability index is reported as 1.74. FPKVEQVYLHFLSVVTEDGPEPKD [S4V] gave a protein stability index of 1.61. FPKKEQVYLHFLSVVTEDGPEPKD [S4K] gave a protein stability index of 1.89. With FPKHEQVYLHFLSVVTEDGPEPKD [S4H] the protein stability index was 2.26. Variant FPKNEQVYLHFLSVVTEDGPEPKD [S4N] has a protein stability index of 3.06. With FPKFEQVYLHFLSVVTEDGPEPKD [S4F] the protein stability index was 2.49. In the case of FPKREQVYLHFLSVVTEDGPEPKD [S4R], the protein stability index is reported as 1.66. For FPKEEQVYLHFLSVVTEDGPEPKD [S4E], the protein stability index was 2.95. FPKDEQVYLHFLSVVTEDGPEPKD [S4D] gave a protein stability index of 2.24. Work on FPKGEQVYLHFLSVVTEDGPEPKD [S4G] yielded a protein stability index of 1.66. FPKAEQVYLHFLSVVTEDGPEPKD [S4A] showed a protein stability index of 1.77. For FPKMEQVYLHFLSVVTEDGPEPKD [S4M], the protein stability index was 2.35. In the case of FPKPEQVYLHFLSVVTEDGPEPKD [S4P], the protein stability index is reported as 1.95. In the case of FPKWEQVYLHFLSVVTEDGPEPKD [S4W], the protein stability index is reported as 2.14.

Variants of: B2
Assay: as above
Conditions: c terminus: a fixed tail appended
For TIRLRPRQVLCEKCKSTLSPQEAS [P21Q], the protein stability index was 2.98. In the case of TIRLRPRQVLCEKCKSTLSPHEAS [P21H], the protein stability index is reported as 2.79. TIRLRPRQVLCEKCKSTLSPWEAS [P21W] gave a protein stability index of 2.35. In the case of TIRLRPRQVLCEKCKSTLSPMEAS [P21M], the protein stability index is reported as 2.73. TIRLRPRQVLCEKCKSTLSPYEAS [P21Y] gave a protein stability index of 2.42. Variant TIRLRPRQVLCEKCKSTLSPAEAS [P21A] has a protein stability index of 3.29. Work on TIRLRPRQVLCEKCKSTLSPVEAS [P21V] yielded a protein stability index of 2.95. Variant TIRLRPRQVLCEKCKSTLSPEEAS [P21E] has a protein stability index of 3.63. In the case of TIRLRPRQVLCEKCKSTLSPSEAS [P21S], the protein stability index is reported as 3.5. TIRLRPRQVLCEKCKSTLSPCEAS [P21C] showed a protein stability index of 2.72. In the case of TIRLRPRQVLCEKCKSTLSPREAS [P21R], the protein stability index is reported as 2.72. For TIRLRPRQVLCEKCKSTLSPNEAS [P21N], the protein stability index was 2.95. TIRLRPRQVLCEKCKSTLSPIEAS [P21I] showed a protein stability index of 2.67. In the case of TIRLRPRQVLCEKCKSTLSPLEAS [P21L], the protein stability index is reported as 2.08. TIRLRPRQVLCEKCKSTLSPDEAS [P21D] gave a protein stability index of 3.89. In the case of TIRLRPRQVLCEKCKSTLSPFEAS [P21F], the protein stability index is reported as 2.56. Work on TIRLRPRQVLCEKCKSTLSPTEAS [P21T] yielded a protein stability index of 2.69. Variant TIRLRPRQVLCEKCKSTLSPGEAS [P21G] has a protein stability index of 2.78. With TIRLRPRQVLCEKCKSTLSPKEAS [P21K] the protein stability index was 3.21. Variant TIRLRPRQVLCEKCKSTLSPPEAI [S24I] has a protein stability index of 2.78.
